Results on four molecules are retold here after PMC7617353, “Molecular basis of FIGNL1 in dissociating RAD51 from DNA and chromatin” (Science (New York, N.Y.), 2024).

Usually stoichiometry N stands for a count of units in the complex or per binding partner. What is called Kd is the constant that tells how readily two partners part at equilibrium. Read a high Kd as a looser complex.

The labels stand for the following.
B2: FIGNL1ΔN(E501Q) (domain or fragment, human, UniProt Q6PIW4 287-674, looked up)
chain: KEDSSLPTFKTAKEQLWVDQQKKYHQPQRASGSSYGGVKKSLGASRSRGILGKFVPPIPKQDGGEQNGGMQCKPYGAGPTEPAHPVDERLKNLEPKMIELIMNEIMDHGPPVNWEDIAGVEFAKATIKEIVVWPMLRPDIFTGLRGPPKGILLFGPPGTGKTLIGKCIASQSGATFFSISASSLTSKWVGEGEKMVRALFAVARCQQPAVIFIDQIDSLLSQRGDGEHESSRRIKTEFLVQLDGATTSSEDRILVVGATNRPQEIDEAARRRLVKRLYIPLPEASARKQIVINLMSKEQCCLSEEEIEQIVQQSDAFSGADMTQLCREASLGPIRSLQTADIATITPDQVRPIAYIDFENAFRTVRPSVSPKDLELYENWNKTFGCGK
notes: Six copies in the cryo-EM hexamer with ATP.Mg2+ and RAD51; also called E501Q mutant; source: E. coli BL21(DE3), purified as the wild type (HisTrap, StrepTrap, SEC)
B3: RAD51 (natural protein, human, UniProt Q06609 1-339, looked up)
chain: MAMQMQLEANADTSVEEESFGPQPISRLEQCGINANDVKKLEEAGFHTVEAVAYAPKKELINIKGISEAKADKILAEAAKLVPMGFTTATEFHQRRSEIIQITTGSKELDKLLQGGIETGSITEMFGEFRTGKTQICHTLAVTCQLPIDRGGGEGKAMYIDTEGTFRPERLLAVAERYGLSGSDVLDNVAYARAFNTDHQTQLLYQASAMMVESRYALLIVDSATALYRTDYSGRGELSARQMHLARFLRMLLRLADEFGVAVVITNQVVAQVDGAAMFAADPKKPIGGNIIAHASTTRLYLRKGRGETRICKIYDSPCLPEAEAMFAINADGVGDAKD
modifications: cysteine reactive RED-MALEIMIDE label (only in the MST with labelled RAD51)
notes: RAD51, expressed without tags; PDB 8R64 holds only residues 2-13 of it; also called RAD51 recombinase

Data set [1] has as its target T1, FIGNL1ΔN (human FIGNL1 residues 287-674) (human, UniProt Q6PIW4 287-674).
T1 construct: Monomer by SEC-MALLS after purification; hexamer with ATPγS by cryo-EM; source: E. coli BL21(DE3), purified (HisTrap, StrepTrap, SEC Superdex 200 increase)
T1 sequence (looked up): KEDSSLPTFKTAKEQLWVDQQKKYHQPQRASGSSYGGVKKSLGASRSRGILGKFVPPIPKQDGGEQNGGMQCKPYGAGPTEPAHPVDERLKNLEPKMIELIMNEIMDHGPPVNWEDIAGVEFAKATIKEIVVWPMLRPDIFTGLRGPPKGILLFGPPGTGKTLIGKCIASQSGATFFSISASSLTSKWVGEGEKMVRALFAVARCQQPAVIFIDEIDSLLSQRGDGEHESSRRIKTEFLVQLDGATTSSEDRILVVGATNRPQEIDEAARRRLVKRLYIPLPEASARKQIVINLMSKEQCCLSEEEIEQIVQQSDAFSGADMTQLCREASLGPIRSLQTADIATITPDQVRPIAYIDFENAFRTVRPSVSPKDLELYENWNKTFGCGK
Nature of the data set: cryo-EM structure; 5µM FIGNL1ΔN with 1mM ATPγS and 5mM MgCl2, 15 minutes at 37°C in EM buffer; planar hexamer, 9.2Å map.

For data set [2], the target named is T2, RAD51 (human, UniProt Q06609 1-339, cysteine reactive RED-MALEIMIDE label (only in the MST with labelled RAD51)).
T2 chain: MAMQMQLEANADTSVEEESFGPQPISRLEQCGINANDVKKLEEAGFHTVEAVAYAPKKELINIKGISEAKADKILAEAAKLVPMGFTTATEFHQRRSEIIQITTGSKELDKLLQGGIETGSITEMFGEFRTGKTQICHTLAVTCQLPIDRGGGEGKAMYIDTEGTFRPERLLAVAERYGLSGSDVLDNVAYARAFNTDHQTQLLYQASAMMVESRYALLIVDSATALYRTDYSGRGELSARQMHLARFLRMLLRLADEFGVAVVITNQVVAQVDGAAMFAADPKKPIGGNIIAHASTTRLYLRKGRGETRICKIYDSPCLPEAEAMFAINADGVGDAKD
The data set is described as follows: MST.

For data set [3], the target named is B3. The data set is described as follows: cryo-EM structure; 10μM FIGNL1ΔN(E501Q) with 10μM RAD51, 1mM ATP, 5mM MgCl2, 20 mM Tris-HCl pH 8.0, 100 mM NaCl, 10 minutes at 37°C; whole complex ~8 Å, focused hexamer with RAD51 N-terminus 2.9 Å. The settings on record: both partners purified.
Data set [4] deals with the molecule itself. Described as above.
For data set [5], the target named is T3, FIGNL1ΔN with an N-terminal YBBR-tag, labelled (human, UniProt Q6PIW4 287-674, labelled as previously described (refs 59, 60)).
T3 chain: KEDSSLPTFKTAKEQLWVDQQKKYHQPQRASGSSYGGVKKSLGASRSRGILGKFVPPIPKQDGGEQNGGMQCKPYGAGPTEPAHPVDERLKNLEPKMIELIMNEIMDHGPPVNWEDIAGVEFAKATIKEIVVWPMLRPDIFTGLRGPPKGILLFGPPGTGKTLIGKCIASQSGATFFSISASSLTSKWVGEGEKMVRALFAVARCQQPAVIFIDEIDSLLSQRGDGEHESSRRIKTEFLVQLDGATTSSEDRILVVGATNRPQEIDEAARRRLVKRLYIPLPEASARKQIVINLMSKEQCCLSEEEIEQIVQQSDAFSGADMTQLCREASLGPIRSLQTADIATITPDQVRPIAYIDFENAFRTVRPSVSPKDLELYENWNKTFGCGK
The data set is described as follows: MST.

The target of data set [6] is T4, FIGNL1ΔN(E501Q) (human, UniProt Q6PIW4 287-674, E501Q).
T4 sequence: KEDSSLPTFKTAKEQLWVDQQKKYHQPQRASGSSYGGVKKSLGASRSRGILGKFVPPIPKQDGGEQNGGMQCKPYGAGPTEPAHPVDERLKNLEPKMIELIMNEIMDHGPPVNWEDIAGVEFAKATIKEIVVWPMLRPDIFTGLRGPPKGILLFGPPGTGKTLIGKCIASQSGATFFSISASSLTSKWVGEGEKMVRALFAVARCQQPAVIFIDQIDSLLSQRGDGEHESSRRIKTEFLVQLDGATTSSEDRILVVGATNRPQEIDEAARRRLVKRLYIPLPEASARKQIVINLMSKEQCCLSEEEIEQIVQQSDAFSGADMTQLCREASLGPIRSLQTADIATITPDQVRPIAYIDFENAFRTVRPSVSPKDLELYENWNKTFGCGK
The data set is described as follows: MST.

The target in data set [7] is B2. Nature of the data set: MST; 100nM RED-MALEIMIDE labelled RAD51 with a serial dilution of FIGNL1ΔN (and mutants); 20mM Tris pH 8.0, 100mM NaCl, 1mM ATP, 5mM MgCl2, 0.05% TWEEN-20; 25°C. To be noted: both partners purified.
In data set [8] the target is T1, FIGNL1ΔN (human FIGNL1 residues 287-674). The data set is described as above. The settings on record: both partners purified.
Data set [9] addresses T5, FIGNL1ΔN pore loop 1 mutant (K473E,W474A) (human, UniProt Q6PIW4 287-674, K473E | W474A).
T5 construct: also called PL mutant; source: E. coli BL21(DE3), purified as the wild type (HisTrap, StrepTrap, SEC)
T5 sequence (looked up): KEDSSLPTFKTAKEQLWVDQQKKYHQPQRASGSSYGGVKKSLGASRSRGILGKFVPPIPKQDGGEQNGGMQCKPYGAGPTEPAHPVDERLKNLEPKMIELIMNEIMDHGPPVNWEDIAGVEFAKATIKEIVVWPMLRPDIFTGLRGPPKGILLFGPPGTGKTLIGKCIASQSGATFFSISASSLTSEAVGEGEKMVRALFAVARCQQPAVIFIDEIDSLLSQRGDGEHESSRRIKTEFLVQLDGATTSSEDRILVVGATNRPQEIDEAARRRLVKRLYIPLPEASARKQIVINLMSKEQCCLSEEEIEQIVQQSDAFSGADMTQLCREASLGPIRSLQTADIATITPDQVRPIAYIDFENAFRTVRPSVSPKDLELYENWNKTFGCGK
Described as above. The settings on record: both partners purified.

The target in data set [10] is T6, FIGNL1ΔN pore loop 1 mutant (K473E,W474A) (human, UniProt Q6PIW4 287-674, K473E | W474A).
T6 sequence: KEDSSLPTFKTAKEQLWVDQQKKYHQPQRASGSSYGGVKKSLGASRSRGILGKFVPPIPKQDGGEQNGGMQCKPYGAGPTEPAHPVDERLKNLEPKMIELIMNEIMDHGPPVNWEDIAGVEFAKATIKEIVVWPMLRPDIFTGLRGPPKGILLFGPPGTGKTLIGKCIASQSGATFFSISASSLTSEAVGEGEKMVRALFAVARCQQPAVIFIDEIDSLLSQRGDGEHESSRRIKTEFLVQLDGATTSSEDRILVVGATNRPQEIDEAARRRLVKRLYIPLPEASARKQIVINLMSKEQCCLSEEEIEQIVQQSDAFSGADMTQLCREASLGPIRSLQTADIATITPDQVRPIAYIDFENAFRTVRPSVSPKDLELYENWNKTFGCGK
Nature of the data set: MST.

The target of data set [11] is T7, FIGNL1ΔN with an N-terminal YBBR-tag, labelled (human, UniProt Q6PIW4 287-674, labelled as previously described (refs 59, 60)).
T7 sequence (looked up): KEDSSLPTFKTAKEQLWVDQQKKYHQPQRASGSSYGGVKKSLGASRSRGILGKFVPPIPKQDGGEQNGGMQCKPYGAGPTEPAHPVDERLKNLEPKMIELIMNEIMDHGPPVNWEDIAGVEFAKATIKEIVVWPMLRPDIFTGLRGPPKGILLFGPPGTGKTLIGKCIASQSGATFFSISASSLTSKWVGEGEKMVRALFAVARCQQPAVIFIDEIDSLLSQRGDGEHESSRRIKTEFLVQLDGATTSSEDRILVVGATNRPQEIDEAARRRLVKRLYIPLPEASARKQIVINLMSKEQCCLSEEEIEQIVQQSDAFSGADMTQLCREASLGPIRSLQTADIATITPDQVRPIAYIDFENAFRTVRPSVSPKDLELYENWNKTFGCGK
Nature of the data set: MST; 100nM FIGNL1ΔN labelled at an N-terminal YBBR-tag with a serial dilution of RAD51 and RAD51ΔN; measured as in the labelled RAD51 experiments. To be noted: both partners purified.

B1: FIGNL1ΔN (human FIGNL1 residues 287-674) (domain or fragment)
chain: KEDSSLPTFKTAKEQLWVDQQKKYHQPQRASGSSYGGVKKSLGASRSRGILGKFVPPIPKQDGGEQNGGMQCKPYGAGPTEPAHPVDERLKNLEPKMIELIMNEIMDHGPPVNWEDIAGVEFAKATIKEIVVWPMLRPDIFTGLRGPPKGILLFGPPGTGKTLIGKCIASQSGATFFSISASSLTSKWVGEGEKMVRALFAVARCQQPAVIFIDEIDSLLSQRGDGEHESSRRIKTEFLVQLDGATTSSEDRILVVGATNRPQEIDEAARRRLVKRLYIPLPEASARKQIVINLMSKEQCCLSEEEIEQIVQQSDAFSGADMTQLCREASLGPIRSLQTADIATITPDQVRPIAYIDFENAFRTVRPSVSPKDLELYENWNKTFGCGK
With B1, the stoichiometry N in [1] came out at 6. The molecule also gave an equilibrium dissociation constant (Kd) with RAD51 [2] of 328 nM.

As for B2, the “stoichiometry N” value in the data set with RAD51 [3] is 2 RAD51 monomers per FIGNL1 hexamer; in data set [4], 6.

For the molecule B3, the figures for the dissociation constant Kd (in [5]; with FIGNL1ΔN(E501Q) [6]; in [10]) were 109 nM, 279 nM and 340 nM, respectively. For the same molecule, the binding result (with FIGNL1ΔN(E501Q) [7]; in data set [8]; in data set [9]) was “binds” each time.

B4: RAD51ΔN (RAD51 lacking the N-terminal 20 residues) (domain or fragment, human, UniProt Q06609 21-339, looked up)
chain: GPQPISRLEQCGINANDVKKLEEAGFHTVEAVAYAPKKELINIKGISEAKADKILAEAAKLVPMGFTTATEFHQRRSEIIQITTGSKELDKLLQGGIETGSITEMFGEFRTGKTQICHTLAVTCQLPIDRGGGEGKAMYIDTEGTFRPERLLAVAERYGLSGSDVLDNVAYARAFNTDHQTQLLYQASAMMVESRYALLIVDSATALYRTDYSGRGELSARQMHLARFLRMLLRLADEFGVAVVITNQVVAQVDGAAMFAADPKKPIGGNIIAHASTTRLYLRKGRGETRICKIYDSPCLPEAEAMFAINADGVGDAKD
notes: RAD51 lacking the N-terminal 20 residues; also called RAD51 with N-terminal 20 a.a. deleted
As to B4, the binding result in [11] is on record as “binds”. The molecule further came in with a Kd in data set [5] of 315 nM.
